Experimental data published in patent US11834472B2, “Anti-IL-22 antibodies, antibody fragments, their immunoconjugates and uses thereof” (BioAtla, Inc., priority 2018, dated 2023).

Experiments:
Thermostability = type: physicochemical
human IL-22 = biological target: T1, human IL-22 (Homo sapiens, UniProt Q9GZX6); assay: SPR capture assay, affinity to human IL-22; type: binding; conditions: human IL-22, SPR
T1 sequence (Q9GZX6 34-179): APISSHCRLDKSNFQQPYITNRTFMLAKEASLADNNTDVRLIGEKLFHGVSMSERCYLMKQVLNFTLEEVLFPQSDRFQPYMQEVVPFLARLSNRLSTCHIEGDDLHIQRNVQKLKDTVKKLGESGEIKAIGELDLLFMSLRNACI
Procedure: (§1) The affinity of the 10 antibodies of Table 1 was measured by Surface Plasma Resonance (SPR) using a capture assay in PBS buffer to generate binding curves at four different concentrations of each antibody (0.05, 0.1, 0.5, and 1.0 μg/ml). The Ka, Kd and KD values for the mutant antibodies were calculated from the curves for each of the antibodies.
(§2) The affinity of the 10 antibodies of Table 1 was measured by Surface Plasma Resonance (SPR) using a capture assay on a SPR-2 instrument (SierraSensiors, Hamburg, Germany). The antigens hIL-22 and mIL-22 were immobilized on chips. The running buffer for the assay contained 10 mM HEPES with a pH of 7.4, 500 mM NaCl, and 0.05% TWEEN® 20. […] The off-rate was measured for 6 minutes. Binding constants were calculated using the curve fitting software Analyzer2 (Sierra Sensors). Sensorgrams were analyzed with the instrument specific software and with BIAevaluation 4.1 software. The binding data were analyzed using the Langmuir 1:1 model (human IL-22) or a model for a heterogeneous ligand ([…]).
(§3) The antibodies were tested at four different concentrations of each antibody: 0.33 nM, 0.67 nM, 3.3 nM, 6.7 nM for hIL-22; 1, 2, […] for mIL-22. Antibody CPE-LC-E049K was used as a control.

mIL22 = biological target: T2, mIL22 (Mus musculus, UniProt Q9JJY9); assay: Inhibition of mIL-22 induced acute phase response (SAA) in mice; type: in vivo; conditions: 5 μg mIL22 and 50 μg mAb; molar ratio of mIL 22:mAb = 1:2.2; SAA in mice at 24 hours
T2 sequence (Q9JJY9 34-179): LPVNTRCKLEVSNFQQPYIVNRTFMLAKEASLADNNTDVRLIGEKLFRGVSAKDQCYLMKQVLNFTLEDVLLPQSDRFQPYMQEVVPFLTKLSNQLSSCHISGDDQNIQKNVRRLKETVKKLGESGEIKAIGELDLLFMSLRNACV
Procedure: IL-22 induces acute phase responses in animals such as mice and humans. The mutant antibodies of the present invention can inhibit the acute phase response induced by IL-22. This acute phase response is indicated by the concentration of serum amyloid (SAA) in the blood of the animal as shown in FIG. 11. The SAA concentrations in the blood of mice were measured 24 hours after treatment of the mice by IL-22 and/or the mutant antibodies. When only IL-22 is used, the SAA concentration was high.
5 μg mIL-22 was used to stimulate an acute phase response in mice. The acute phase response was measured by the concentration of serum amyloid (SAA) in the blood of the mice. The anti-IL-22 antibodies were administered at two different dosage levels to inhibit the IL-22 induced acute phase response: 5 μg and 50 μg. Five mice were used for each dose group. The SAA concentrations were measured at 24 hours after injection of IL-22 and/or antibodies and the results are shown in FIG. 11.

mouse IL-22 (mIL-22) = biological target: T3, mouse IL-22 (mIL-22) (Mus musculus, UniProt Q9JJY9); assay: Inhibition of mIL-22 induced Stat3 phosphorylation in HepG2 cells; type: cell-based; conditions: mAb 6.7 nM
T3 sequence (Q9JJY9 34-179): T2 sequence (Q9JJY9 34-179)
Procedure: One of the immediate functions of IL-22 is inducing phosphorylation of Stat3, a protein in the signaling pathway of IL-22. The 10 antibodies of Table 1 were tested in a cell-based assay for blocking IL-22-dependent phosphorylation of Stat3 through human or mouse IL-22 in HepG2 cells. Antibody hum10 and mutant CPE-LC-E049K were used as controls. Four concentrations of each of the antibodies were used: 0.11 μg/mL, 0.33 μg/mL, 1 μg/mL, and 3 μg/mL.
30,000 human HepG2 cells were seeded in 96 well plates and serum starved overnight. Three-fold dilutions of anti-IL-22 antibodies and control hum10 antibody at concentrations of 0.11 μg/mL, 0.33 μg/mL, 1 μg/mL, and 3 μg/mL were incubated with 200 ng/ml of hIL-22 or mIL-22 at 37° C. for one hour then added to the serum starved human HepG2 cells. The HepG2 cells were incubated with the antibody-IL-22 mixture at 37° C. for 20 minutes. After incubation, HepG2 cells were washed with PBS and lysed. Half of the cell lysate was used to determine the level of phosphorylated Stat3 using Cell Signaling kit #7300 following the vendor's protocol and the other half of the cell lysate was used to determine the level of total Stat3 by Western blot analysis using a Santa Cruz rabbit polyclonal antibody (Sc-7179) against human Stat3.

mouse IL-22 = biological target: T4, mouse IL-22 (Mus musculus, UniProt Q9JJY9); assay: SPR capture assay, affinity to mouse IL-22; type: binding; conditions: mouse IL-22, SPR
T4 sequence (Q9JJY9 34-179): T2 sequence (Q9JJY9 34-179)
Procedure: as §1, §2, §3

[1] = Pharmacokinetics in NOD SCID mice, plasma concentration by solid phase ELISA; type: in vivo, mouse; conditions: after a 10 mg/kg IV injection
Procedure: The pharmacokinetics of the mutant antibodies of Table 1 were analyzed in mice. The antibodies were injected into mice by IV injection at two doses 0.3 mg/kg and 10 mg/kg. The concentrations of the injected antibodies in the blood plasma were measured by solid phase ELISA.
Two anti-IL-22 antibodies CPS02 and CPS09 were tested in NOD SCID mice. The antibodies were injected via IV at two dosages: 0.3 mg/kg and 10 mg/kg. Three mice were used for each dose group. Blood samples were retrieved from the mice at 10 min, 1 h, 3 h 7 h, 24 h, 48 h, 96 h, 168 h, 240 h and 336 h after the IV injection. The concentrations of the injected antibodies in the blood samples were measured by solid phase ELISA.

[2] = Aggregate formation at 10 mg/mL in PBS; type: physicochemical

B1: CPS02: mutant anti-IL-22 antibody binding human and mouse IL-22; light chain LC-06, heavy chain HC-08 (antibody, V domains shown)
VH: QVQLVQSGAEVKKPGASVKVSCKASGYIFRSYWIHWIRQPPGKGLEWIGRIYPGTGRTYYNEKFKGRVTISADKSISTAYLQWSSLKASDTAMYYCARSYDSSVAYWGQGTLVTVSS
VL: AIQLTQSPSSLSASVGDRVTITCSASSSVSYMHWYLQKPGQSPQLLIYKTRKLASGVPSRFSGSGSGTDFTFTISSLEAEDAATYYCQQWSSNPYITFGQGTKVEIKR
With B1 as the molecule, how does the “Thermostability (% remaining activity 60 min); of duplicate samples” value (Thermostability) read?
The value was 104%.

What about the ka (human IL-22) of the same molecule?
Its ka is 1.87e+06 M·s.

What about the kd (human IL-22) of the same molecule?
The kd was 4.67e-05 s⁻¹.

What about the “Acute Phase response (% signal reduction)” value (mIL22) of the same molecule?
The value was “signal increase”.

What about the “STAT3 Phosphorylation; mIL22 % inhibition” value (mouse IL-22 (mIL-22)) of the same molecule?
Its value is 76.18%.

And the ka (mouse IL-22)?
Its ka is 166000 M·s.

What about the kd (mouse IL-22) of the same molecule?
The kd was 0.000545 s⁻¹.

What about the half-life in mice [1] of the same molecule?
Its half-life in mice is “about 18 hours”.

And the “Aggregate formation at 10 mg/mL in PBS” value [2]?
The value was “no”.
